Measurements as given in the supplement of paper PMC10126150.
± gives the standard deviation of the averaged measurements.

Test system: ATP
Assay: switch fluorescence ratio, 500 uM ATP over buffer (Cy3 cluster intensity, sum of 5 cycles each) (fold (ratio)); higher = stronger signal-on switching upon ATP binding; sequences stand for … in TCGTCGGCAGCGTCAGATGTGTATAAGAGACAGTTTTTTTTTTTTTTTTTTTTTTTTT…TC
Settings: aptamer strand: ATP DNA aptamer (quencher-CACCTGGGGGAGTATTGCGGAGGAAGG + anchor), 100 nM annealed; ATP concentration: 500 uM
Outline: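 For every switch-domain sequence, the fluorescence ratio is the mean of per-cluster values, each being summed target-cycle Cy3 intensity over summed buffer-cycle Cy3 intensity. Clusters outside 100-1000 RFU were excluded. On a modified Illumina MiSeq flow-cell, the Cy3-labelled switching-strand clusters were annealed to 100 nM quencher-labelled ATP aptamer, imaged in selection buffer and then after 15 min with 500 uM ATP at 22 °C. Five such cycles were run, with NaOH stripping and re-annealing between them.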
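Also: ATP exposure 15 min at 22 °C before imaging.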

| Sequence | switch fluorescence ratio |
| --- | --- |
| GAGTATTATA | 1 ± 0.025 |
| TTTCCGGGAC | 1.41 ± 0.066 |
| GGGCCCCTTG | 1.01 ± 0.073 |
| GTTTTCGGCC | 0.996 ± 0.029 |
| TTATCAATGG | 1.01 ± 0.078 |
| AAATTGGGG | 0.9583 ± 0.0056 |
| CCGTTGGTAA | 1.345 ± 0.0022 |
| CATTAGTTGT | 1.02 ± 0.011 |
| CCTAAATACC | 1.29 ± 0.25 |
| TGCAGGGATC | 1.03 ± 0.017 |
| AATTGGAGTG | 0.998 ± 0.041 |
| GCCGGGGTCG | 1.02 ± 0.037 |
| ATCTATGCTT | 0.989 ± 0.023 |
| AGGGCATTCT | 0.9837 ± 0.0017 |
| GAAATAATGT | 1.03 ± 0.055 |
| TCATGGTGAT | 1.022 ± 0.0013 |
| GATATGGGTA | 1.02 ± 0.035 |
| CGTAGTGAGG | 0.994 ± 0.03 |
| TTTAATATCT | 0.998 ± 0.015 |
| TCTTAGTTAG | 0.9878 ± 0.0059 |
| GGACTAGGTG | 1.16 ± 0.044 |
| ATTTGTAAGC | 0.9909 ± 0.0068 |
| TGAACCTTCA | 2.71 ± 0.14 |

| Sequence | switch fluorescence ratio |
| --- | --- |
| GTTAGGTTTG | 0.997 ± 0.029 |
| TGGGAGAAAA | 1.0069 ± 0.00087 |
| GAGAAGAGGG | 1.04 ± 0.042 |
| GGGTTTGGTG | 0.987 ± 0.02 |
| GGTGGCCGGT | 0.987 ± 0.021 |
| TGGTTAAGGG | 1 ± 0.041 |
| GGAAGAGGGT | 0.997 ± 0.052 |
| TGCGTTAT | 1.07 ± 0.036 |
| TCGTTCACTG | 0.9891 ± 0.007 |
| CTAAGTTGGG | 1.1 ± 0.13 |
| ACTGATGACG | 1.06 ± 0.078 |
| TGGGCGGGA | 1 ± 0.03 |
| TGAACGTTGG | 0.997 ± 0.029 |
| AAAAATAGTT | 1.03 ± 0.07 |
| GTTAATGTCG | 1.056 ± 0.0053 |
| AGGGGATGTG | 0.97 ± 0.048 |
| TTATAGAGG | 1.02 ± 0.0041 |
| AAGCATTTGT | 0.9976 ± 0.0089 |
| AGACTACTAC | 1.12 ± 0.025 |
| CGTCGGTTTG | 0.993 ± 0.019 |
| AGGCCCCCCA | 1.328 ± 0.013 |
| GCGATAGGGC | 1.02 ± 0.065 |
| TGTTGGAAGG | 1.01 ± 0.014 |

| Sequence | switch fluorescence ratio |
| --- | --- |
| AAGTTTTGTA | 0.985 ± 0.05 |
| TTAATTAACG | 0.995 ± 0.023 |
| CCATTAGCAT | 2.12 ± 0.2 |
| TGGTTTCTTT | 1.006 ± 0.0059 |
| GTTTGGGTGC | 1.072 ± 0.0055 |
| GGGCCGGGGC | 1.01 ± 0.024 |
| CATTGTGTTT | 0.9707 ± 0.0029 |
| ATTGTTTCAG | 0.976 ± 0.02 |
| CTCAGTAGGG | 0.975 ± 0.024 |
| AGGTGGTCTG | 0.9885 ± 0.0047 |
| AAGATCGGGG | 0.972 ± 0.049 |
| ACGTCAAGTA | 0.985 ± 0.022 |
| TGCGGTGGGG | 0.976 ± 0.013 |
| TAAGGTCCGA | 1.021 ± 0.0077 |
| GGGAGCCAGT | 1.05 ± 0.12 |
| ATGGTGGGT | 0.978 ± 0.033 |
| TAATTAGCGG | 1.01 ± 0.018 |
| CAATATGTTG | 1.02 ± 0.035 |
| TTGATTTCGT | 0.9998 ± 0.0024 |
| AAATTTAATG | 0.961 ± 0.016 |
| ATTTAGTTGT | 1.03 ± 0.03 |
| TCGAGTCCTA | 0.9857 ± 0.0037 |
| TAATATGGTT | 1.03 ± 0.055 |

| Sequence | switch fluorescence ratio |
| --- | --- |
| TTCTGGGGTG | 1.46 ± 0.67 |
| GTATTGTGGT | 0.967 ± 0.017 |
| CTAGGGAAAC | 1.002 ± 0.009 |
| GCGAGTGCGG | 1.02 ± 0.018 |
| CAATACTACT | 1.361 ± 0.01 |
| TGGGGTTTCC | 1.16 ± 0.32 |
| TTGGACGCAC | 2.08 ± 0.12 |
| AGGAAGGTTT | 0.993 ± 0.041 |
| ATCGGAAACT | 1.03 ± 0.039 |
| ATAGATTAGT | 0.996 ± 0.035 |
| AGAGGGTTGG | 0.986 ± 0.022 |
| TTTGTGGGTA | 1.01 ± 0.039 |
| TTGCATGATG | 0.9611 ± 0.0076 |
| GGACTAGAGC | 1.01 ± 0.069 |
| AAGTTAGTTT | 0.966 ± 0.043 |
| CACCAGTCAA | 1.56 ± 0.33 |
| TACTTGTGTT | 1.02 ± 0.046 |
| AGAAGTTTTG | 1.04 ± 0.054 |
| AGACTAGCCA | 0.981 ± 0.081 |
| AAGTACTCCA | 1.335 ± 0.0082 |
| ATTGGATTCA | 1.022 ± 0.0023 |
| ATATTTGTTT | 0.993 ± 0.022 |
| AGTCACAGCT | 0.982 ± 0.032 |

| Sequence | switch fluorescence ratio |
| --- | --- |
| ACGCTGTTGG | 1.01 ± 0.035 |
| CGGATTTAGA | 0.987 ± 0.043 |
| CGGGGGCACC | 1.07 ± 0.057 |
| GGCCAAGGTG | 2.05 ± 0.42 |
| ATTCGGGGG | 0.927 ± 0.064 |
| ACAACCGCTT | 1.13 ± 0.017 |
| TTTCTTGCAC | 1.067 ± 0.0095 |
| ATGTTTTATG | 0.992 ± 0.042 |
| GTGATCAGTG | 0.98698 ± 0.00016 |
| AGGGGGTCAG | 0.986 ± 0.027 |
| CGTCATCGCA | 1.2 ± 0.022 |
| TGATCATACT | 1.035 ± 0.0046 |
| ACTCGTAACT | 0.9931 ± 0.0057 |
| AGTATTGGTG | 0.956 ± 0.026 |
| GCGGCCTTTC | 1.2 ± 0.23 |
| ACAGGGGGGA | 1.05 ± 0.046 |
| GGGGCGGTCT | 0.9667 ± 0.004 |
| TTAGGTTTGT | 1 ± 0.031 |
| CCGCTAGGGC | 2.1 ± 1.2 |
| GGAGCTGTCG | 0.9774 ± 0.0094 |
| CAGTGTGGTG | 1 ± 0.049 |
| TCATGGACTG | 1.06 ± 0.02 |
| AGTGGTACCG | 0.99 ± 0.024 |

| Sequence | switch fluorescence ratio |
| --- | --- |
| CAGGGGGGTT | 1.09 ± 0.21 |
| GGGATGGTGT | 0.962 ± 0.016 |
| AAGTCTCGGG | 0.995 ± 0.0026 |
| GGACGTGTTG | 0.983 ± 0.033 |
| TTGTGGGGGG | 0.989 ± 0.036 |
| ATTTTACACC | 1.07 ± 0.013 |
| TAAGGGAATC | 1.2 ± 0.31 |
| TTAGGCCCTG | 0.992 ± 0.041 |
| ATCTTGGCAG | 0.968 ± 0.034 |
| GAAATAAGGT | 0.99 ± 0.024 |
| GGGCGGTGTC | 1.01 ± 0.042 |
| TTACGTTTTG | 1.13 ± 0.29 |
| GGTGGCGGAA | 0.996 ± 0.037 |
| AGGGCAACTG | 1.07 ± 0.079 |
| GGGGATTTCT | 0.99526 ± 0.00079 |
| TACGGGAGGG | 1.07 ± 0.022 |
| CGGTGGGTCT | 1.006 ± 0.0015 |
| ATATGGAAAT | 1.006 ± 0.0027 |
| GGACCGCCTG | 1.01 ± 0.011 |
| GGGCAAGCAT | 0.999 ± 0.037 |
| TACCGGGGGT | 1.63 ± 0.83 |
| ATTTTACGTG | 1 ± 0.016 |
| ATGTAGGGGT | 1.04 ± 0.093 |

| Sequence | switch fluorescence ratio |
| --- | --- |
| GAACACGGCG | 1 ± 0.05 |
| TACCAGGCGG | 1.04 ± 0.037 |
| GAAAAGAGGC | 1.1 ± 0.039 |
| TGAGTAAGGT | 0.995 ± 0.04 |
| AATATAGGAA | 1.016 ± 0.0092 |
| TTTGTCTGTG | 0.983 ± 0.03 |
| CTGGAATGTG | 1.003 ± 0.01 |
| ACGGGTGGGA | 1.005 ± 0.0036 |
| CTAGGCACAT | 1.1 ± 0.016 |
| CATTCGTAGG | 0.965 ± 0.042 |
| CAGTCCGGCA | 1.05 ± 0.021 |
| TTTGATAACG | 0.987 ± 0.012 |
| TTTATGACGT | 1 ± 0.023 |
| ATAACACGGC | 1.05 ± 0.1 |
| TTGATGCGGA | 0.971 ± 0.05 |
| TATCGAAAAA | 0.967 ± 0.054 |
| AATAGATATG | 1.01 ± 0.0018 |
| TTTATGAGCC | 1.01 ± 0.062 |
| GATCAAGGCA | 1.017 ± 0.0012 |
